Laboratory results as given in patent US20110142842A1 (MEDINNOVA, published 2011).

Biological target: HLA-A*0201 (human, UniProt A*02:01)
Experiment: REVEAL MHC binding assay (ProImmune)

Binder	% Pass/fail control
RMPWYHSSL [Peptide ID 95 RMPWYHSSL (ZAP-70)]	85.6 % of pass/fail control
NVAELLHQV [Peptide ID 101 NVAELLHQV (ZAP-70)]	200 % of pass/fail control
TLWQLVEYL [Peptide ID 97 TLWQLVEYL (ZAP-70)]	198 % of pass/fail control
GMVFSLLQV [Peptide ID 99 GMVFSLLQV (CD127)]	175 % of pass/fail control
ELSEDSSNV [Peptide ID 103 ELSEDSSNV (CD18)]	139 % of pass/fail control
LMSFFILLL [Peptide ID 104 LMSFFILLL (CD53)]	161 % of pass/fail control
WLSAAPTSL [Peptide ID 102 WLSAAPTSL (CD33)]	207 % of pass/fail control
GMDRYLIYV [Peptide ID 9 GMDRYLIYV (CD18)]	170 % of pass/fail control
VLWPRACWT [Peptide ID 100 VLWPRACWT (CD50)]	139 % of pass/fail control
KLKDLFTEL [Peptide ID 98 KLKDLFTEL (CD11a)]	171 % of pass/fail control
KMIMNSLSL [Peptide ID 96 KMIMNSLSL (CD20)]	213 % of pass/fail control
